Assay results: the supplement of paper PMC10126150
± gives the standard deviation of the averaged measurements.

Tested on: ATP
Experiment: switch fluorescence ratio, 500 uM ATP over buffer (Cy3 cluster intensity, sum of 5 cycles each) (fold (ratio)); higher = stronger signal-on switching upon ATP binding; sequences stand for … in TCGTCGGCAGCGTCAGATGTGTATAAGAGACAGTTTTTTTTTTTTTTTTTTTTTTTTT…TC
Conditions: aptamer strand: ATP DNA aptamer (quencher-CACCTGGGGGAGTATTGCGGAGGAAGG + anchor), 100 nM annealed; ATP concentration: 500 uM
Summary of the method: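 After annealing to 100 nM quencher-labelled ATP aptamer, Cy3-labelled switching-strand clusters on a modified Illumina MiSeq flow-cell were imaged in selection buffer. A second image followed after 15 min with 500 uM ATP at 22 °C, and five such buffer/ATP cycles were done, each separated by NaOH stripping and re-annealing. The fluorescence ratio, averaged per switch-domain sequence, is summed target-cycle over summed buffer-cycle Cy3 intensity per cluster, with clusters outside 100-1000 RFU excluded.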
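Further: ATP exposure 15 min at 22 °C before imaging.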

Sequence	switch fluorescence ratio
TTGTTGTAGC	1.02 ± 0.015
GATGTTCCGT	0.9958 ± 0.0049
CCGGGGGAGG	1.06 ± 0.048
TTTTTCAGAT	1.03 ± 0.055
GATTGTAGGC	1.03 ± 0.011
TATGCCATTT	1.0337 ± 0.00046
GCGGAATGCA	0.997 ± 0.025
GAGTAAATTG	0.987 ± 0.019
ATGGCGGACG	0.981 ± 0.05
GCTTATAATG	0.997 ± 0.031
CACGTTTCCT	1.1 ± 0.067
GGCCGGGTTC	1.01 ± 0.022
GTAATGCCAG	0.986 ± 0.031
AAGCGTGAGG	1.04 ± 0.047
GATAGATCAG	0.993 ± 0.018
CATTTTAATA	1.01 ± 0.021
TGCGTGTGGG	1.0208 ± 0.001
ATCACAGCTA	1.04 ± 0.017
ATGAGCCACT	0.994 ± 0.03
ATGGGTTTTT	0.979 ± 0.029
CTATGTTGTT	1 ± 0.018
GGGAAGTCAA	1.02 ± 0.032
CTCATTTATT	0.98 ± 0.064
GAAGATTTGC	0.973 ± 0.012
TTTGGGGCGG	0.989 ± 0.038
GATTATCAGA	0.988 ± 0.027

Sequence	switch fluorescence ratio
TGTTTGTGGC	1.12 ± 0.16
TATTGTGTTT	0.9781 ± 0.0039
CTTATCGGCA	1.0825 ± 0.00095
TTTCTTTTAT	0.998 ± 0.016
ACTAGGGGTT	1.23 ± 0.34
TTCGTAGAAA	1.05 ± 0.032
TCGAAGTAGG	1.46 ± 0.71
GATGTCGCGC	1.01 ± 0.028
TAAAGGGGGA	0.983 ± 0.039
ATGCGGTCTG	1.04 ± 0.028
TGGGGGCGCC	0.982 ± 0.041
ACTAGGGACA	1.24 ± 0.028
AGGATAGGAG	0.9957 ± 0.0014
TTATCGGGAG	0.9964 ± 0.0019
GGGGATTTAT	0.997 ± 0.019
TTTTGTGGG	0.966 ± 0.046
GTTACTTGTA	0.978 ± 0.025
GTATTTGGGG	0.985 ± 0.034
TTGGAGGCTC	1.03 ± 0.024
ACGGCTGCGT	1.05 ± 0.029
GTTGGGTGGT	0.968 ± 0.01
TTCATCGGGG	0.979 ± 0.028
AGTAATATAT	0.976 ± 0.028
CGGTTCGGGC	0.983 ± 0.023
GTCGTAAAGG	0.998 ± 0.021
ACGGTTGATG	0.986 ± 0.021

Sequence	switch fluorescence ratio
CTGGGGCGTT	0.983 ± 0.0034
TTCAGTGCAT	1.02 ± 0.051
TACCCTTGGG	0.9937 ± 0.0072
GTGGTAAGTT	0.942 ± 0.026
GGGGATGAGG	0.9698 ± 0.0095
ACTTTATCTA	1.03 ± 0.061
CAACTAAGTT	0.988 ± 0.036
ACGCTATCGC	1.526 ± 0.0041
GGGCCGATCA	0.997 ± 0.036
AAAAGGGTGA	1.02 ± 0.01
ACGTTATTTG	1.11 ± 0.052
CGGGGGATCA	1.01 ± 0.049
GGGGCGGCGT	1.02 ± 0.065
TTGTTGGTTT	1.02 ± 0.05
TGCAGTCTGT	0.988 ± 0.034
GAGAGAGGGG	0.984 ± 0.026
ATTTGTGTTT	0.9931 ± 0.0027
GGGAAAGAAC	1.15 ± 0.2
GGCGATTGGA	1 ± 0.016
GATGGTTAGT	0.974 ± 0.036
TCGGCGGTTT	0.977 ± 0.058
GAGCATTTTT	0.969 ± 0.029
GGGGGAAGTT	0.986 ± 0.042
GCGGCCGAGG	1.02 ± 0.041
GGGATACTTT	1.5 ± 0.73
TTTCGTCCAA	1.04 ± 0.026

Sequence	switch fluorescence ratio
TCCGGTTTTG	0.979 ± 0.013
AACATGGGGC	1.02 ± 0.041
TCATGGATCC	1.01 ± 0.035
GGGGGAGACA	0.997 ± 0.027
GATGGGCTAG	0.997 ± 0.025
ACTGACTCA	1.23 ± 0.048
TTAAAGAGGG	0.974 ± 0.054
TCGCGGGGGA	1.01 ± 0.037
TTTGTTGAGT	1 ± 0.026
TATACGGGTG	1.073 ± 0.0046
ATTATTCAGT	0.997 ± 0.018
GACTGGTATT	0.991 ± 0.019
CTGTTTCGAC	1.02 ± 0.051
TTGGTATTTG	0.993 ± 0.018
CACATTATTC	1.04 ± 0.033
CTTTGATTGG	0.99 ± 0.04
TAGTGGGCTG	0.972 ± 0.025
GAAAATGAAG	1.01 ± 0.031
CAGGGAGTAG	1.01 ± 0.021
AGAGGTTGCG	0.955 ± 0.073
CTAATTGCGA	1 ± 0.016
GGTAAAAGGT	1.02 ± 0.051
GATATAAGGG	0.979 ± 0.042
TGGTGGTCAG	0.98151 ± 0.00069
TGATGGATAA	1.01 ± 0.027
AGTAGGGGGC	1 ± 0.035

Sequence	switch fluorescence ratio
CAAAAAGCGT	0.9786 ± 0.0056
ACTGGTATTG	1.02 ± 0.025
GCTGGTTTGG	0.972 ± 0.052
CGGTTCTTGA	0.995 ± 0.038
AGGGCTATTT	0.973 ± 0.01
GATATGGGTA	1.02 ± 0.035
AGGTTGCGAG	0.989 ± 0.019
AAAAGATAGC	0.989 ± 0.04
CGATGAATTC	1.07 ± 0.048
AAATTCATTA	0.981 ± 0.083
TAAAAAGTTT	0.997 ± 0.03
ATTGGACTAC	1.07 ± 0.03
GGTGGCTTGC	1.014 ± 0.0032
TTAAGCGGCC	1.067 ± 0.0072
AAGCGAGCCG	1.02 ± 0.091
GTTTTGATCA	1 ± 0.016
AATTGATTAG	1.03 ± 0.038
GGCTGGTTGG	1.01 ± 0.017
TTAATGACTT	1.02 ± 0.058
GCGGGTAAGC	1.05 ± 0.012
CGGTTTTATA	0.9619 ± 0.0088
AAATATCTCT	0.982 ± 0.048
TTTTATTGCA	0.96835 ± 0.00073
ATAGGTTTTA	0.976 ± 0.017
CCGGGAGGAT	0.987 ± 0.035
ATCTCGGCCG	0.9864 ± 0.0012

Sequence	switch fluorescence ratio
CTTTAAGTTT	0.9967 ± 0.0093
TCAGGAGTAA	1.82 ± 0.12
GGTTGGTATT	1.001 ± 0.0099
GGGGGCCATG	1.03 ± 0.068
ATTTTTATTC	0.991 ± 0.03
CGTCAACAGG	1.28 ± 0.062
AACTATTTGT	0.978 ± 0.015
ATGACTTACG	1.08 ± 0.02
GGAGAACCCT	1.07 ± 0.038
GTAAATTTGC	1.01 ± 0.013
CGTTTTTCGG	0.971 ± 0.0087
CGCGGTATTA	1.02 ± 0.013
GCTTCTTTGT	0.9984 ± 0.0058
TGGTTTATTG	1.01 ± 0.024
CAGATGCGGA	0.984 ± 0.017
AGGGGGGGAT	0.982 ± 0.029
TAAAGCGCGG	1.074 ± 0.0037
CGTGGGTTCC	0.989 ± 0.038
TAAATCGGGA	0.9928 ± 0.0037
CAGAATGTGG	0.996 ± 0.068
GTTTACATTG	0.985 ± 0.042
AGTAAATTTA	1.001 ± 0.0046
GGGTTTGGTG	0.987 ± 0.02
